Data set [1] deals with the molecule itself. Kind of data set: crystal structure; Mtbβ-Clamp, hanging drop, 9% isopropanol, 12% PEG4K, 0.1 M Na HEPES pH 7.0, 295 K; space group C222_(1); two chains in the asymmetric unit.
Data set [2] has as its target T1, Mtbβ-clamp labeled with OregonGreen488 maleimide (Mtbβ-clamp^OG) (M. tuberculosis, UniProt P9WNU1 1-402, OregonGreen488 maleimide label (residue not stated)).
T1 construct: also called Mtbβ^OG-Clamp
T1 sequence: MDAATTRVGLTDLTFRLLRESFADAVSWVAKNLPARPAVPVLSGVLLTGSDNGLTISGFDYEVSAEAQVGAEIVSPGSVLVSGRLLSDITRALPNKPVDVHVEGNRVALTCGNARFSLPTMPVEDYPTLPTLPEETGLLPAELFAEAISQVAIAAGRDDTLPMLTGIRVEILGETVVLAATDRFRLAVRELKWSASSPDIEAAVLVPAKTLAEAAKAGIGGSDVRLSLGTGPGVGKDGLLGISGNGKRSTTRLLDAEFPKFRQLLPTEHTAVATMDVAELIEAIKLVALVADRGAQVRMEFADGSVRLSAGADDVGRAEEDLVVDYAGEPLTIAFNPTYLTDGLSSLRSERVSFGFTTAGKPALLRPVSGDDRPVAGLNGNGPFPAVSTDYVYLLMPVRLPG
The data set is described as follows: other fluorescence titration; OregonGreen488-labeled β-clamp (50 or 100 nM in the methods, 90 nM in the legend) titrated with the partner protein; 20 mM Tris-Cl pH 7.5, 8 mM MgCl2, 1 mM DTT, 0.2 mM EDTA, 50 mM NaCl, 0.5 mM ATP, 22°C; emission at 510 nm; apparent Kd. Conditions: both partners purified.

B1: M. tuberculosis sliding β-clamp (Mtbβ-clamp, Rv0002) (natural protein)
chain: T1 sequence
notes: also called beta clamp; Native Mtbβ-Clamp
As to B1, the binding result in data set [1] is “binds”.

B2: γ-subunit of the DNA clamp loader complex of M. tuberculosis (Rv3721c) (natural protein)
chain: MALYRKYRPASFAEVVGQEHVTAPLSVALDAGRINHAYLFSGPRGCGKTSSARILARSLNCAQGPTANPCGVCESCVSLAPNAPGSIDVVELDAASHGGVDDTRELRDRAFYAPVQSRYRVFIVDEAHMVTTAGFNALLKIVEEPPEHLIFIFATTEPEKVLPTIRSRTHHYPFRLLPPRTMRALLARICEQEGVVVDDAVYPLVIRAGGGSPRDTLSVLDQLLAGAADTHVTYTRALGLLGVTDVALIDDAVDALAACDAAALFGAIESVIDGGHDPRRFATDLLERFRDLIVLQSVPDAASRGVVDAPEDALDRMREQAARIGRATLTRYAEVVQAGLGEMRGATAPRLLLEVVCARLLLPSASDAESALLQRVERIETRLDMSIPAPQAVPRPSAAA
notes: γ-subunit of the DNA clamp loader (DNA polymerase III subunit gamma/tau) of M. tuberculosis, Rv3721c; also called γ-clamp loader; Mtb-γ-subunit
As to B2, the Kd in data set [2] worked out at 23.8 nM.
